Ends that are not written are not given here.
B1: polypeptide GP-16 (peptide)
peptide: Ac-GEMMDLQHGSLFLQTP-NH2
notes: Synthetic peptide bought from Genecust
B2: polypeptide LP-22 (peptide)
peptide: LEDKLKGEMMDLQHGSLFLQTP-NH2
notes: Synthetic peptide bought from Genecust; also called "cluster B1"-derived polypeptide

Legend:
[1] = biological target: LDH-5 (tetramer of human LDH-M subunits, LDH-M4) (human, UniProt P00338 2-332); assay: cell-based or functional assay
[2] = biological target: T1, LDH-Htr (truncated human LDH-H, dimeric) (human, UniProt A5A6N7 21-334 (Pan troglodytes entry)); assay: MST, labelled LDH-Htr 100 nM, 1.5 s on time, n=3
T1 construct: Recombinant from E. coli; Mainly a dimer, in equilibrium with a weak tetramer; In MST it was labelled with Red-dye-NHS and used at 100 nM; also called hLDH-Htr; truncated LDH-H; not shown: N-terminal 6-His tag from pET-28a (NdeI site)
T1 sequence (A5A6N7 21-334): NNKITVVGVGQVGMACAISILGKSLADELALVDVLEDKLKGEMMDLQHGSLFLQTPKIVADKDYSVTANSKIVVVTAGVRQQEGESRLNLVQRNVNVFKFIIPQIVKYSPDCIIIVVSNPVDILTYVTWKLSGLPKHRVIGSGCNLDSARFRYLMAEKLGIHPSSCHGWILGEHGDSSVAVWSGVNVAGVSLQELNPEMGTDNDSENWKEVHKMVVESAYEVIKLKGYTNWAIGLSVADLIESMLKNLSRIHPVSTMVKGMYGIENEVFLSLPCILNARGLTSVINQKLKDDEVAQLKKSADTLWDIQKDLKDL
Description: MST measurements were performed on a Nanotemper® Monolith NT.115 instrument (NanoTemper Technologies®) using Red-dye-NHS fluorescent labelling. […] Measurements were performed in 50 mM sodium phosphate, pH 7.6, and 100 mM NaCl containing 0.01% Tween-20 in standard-treated capillaries (NanoTemper Technologies®). The final concentration of proteins in the assay was 100 nM. Ligands were titrated in 1:1 dilutions following manufacturer's recommendations. Experiments were performed in triplicates using 40% LED power, high MST power, […] and Laser off time 3 s. Poypeptides were evaluated for their thermophoretic pattern, and Kd's were extracted from raw data at a 1.5 s MST on time following the manufacturer's instructions.

Binder | EC50 of ΔTm (NanoDSF destabilization) of tetrameric LDH-5 (300 nM) [1] [µM] | Kd [2] [µM]
B1 | 262 | 240
B2 | – | 156

Reference: US20240116987A1 (UNIVERSIT CATHOLIQUE DE LOUVAIN, published 2024)
